Reference: PMC8775935, “Chebulinic Acid Suppresses Adipogenesis in 3T3-L1 Preadipocytes by Inhibiting PPP1CB Activity” (International Journal of Molecular Sciences, 2022)

Substrate: Cc1cc(=O)oc2c(F)c(OP(=O)(O)O)c(F)cc12
Test: enzyme kinetics, fluorescence of DiFMU product; KM
Format: biochemical, Homo sapiens
Details: Mn2+ ([…] MnCl2 in buffer)

B1: protein phosphatase-1 catalytic subunit beta (PPP1CB) (Homo sapiens) (protein)
chain: MADGELNVDSLITRLLEVRGCRPGKIVQMTEAEVRGLCIKSREIFLSQPILLELEAPLKICGDIHGQYTDLLRLFEYGGFPPEANYLFLGDYVDRGKQSLETICLLLAYKIKYPENFFLLRGNHECASINRIYGFYDECKRRFNIKLWKTFTDCFNCLPIAAIVDEKIFCCHGGLSPDLQSMEQIRRIMRPTDVPDTGLLCDLLWSDPDKDVQGWGENDRGVSFTFGADVVSKFLNRHDLDLICRAHQVVEDGYEFFAKRQLVTLF
In the case of B1, the Km is reported as 186.2 µM, the Vmax is reported as 3.4 µM/min and the kcat is reported as 38.3 s⁻¹. The kcat/Km was 210000 M⁻¹ s⁻¹.
